Tests used:
[1] = target: T1, SARS-CoV-2 바이러스 표면 단백질 (RBD), WT (SARS-CoV-2, UniProt P0DTC2 319-541); assay: BLI (Octet), Full IgG on RBD WT
[2] = target: T1, SARS-CoV-2 바이러스 표면 단백질 (RBD), WT; assay: BLI (Octet), Full IgG culture supernatant on SARS-CoV-2 RBD

B1: No. 32 항체 (Full IgG) (antibody, V domains shown)
VH: EVQLVQSGGGLIQPGGSLRLSCAASEFIVSSNYMTWVRQAPGKGLEWVSIIYPGGSTYYADSVKGRFTISRDNSKNTLYLRMNSLRAEDTAVYYCARDLPLTGTTLDYWGQGTLVTVSS
VL: not shown
Kd [1]: 0.305 nM | koff [1]: 0.000193 s⁻¹ | kon [1]: 633000 M⁻¹ s⁻¹ | Kd [2]: 0.147 nM
